In patent US20090186811A1 (published 2009):
No end group written: not given here.

Experiments:
human Y5 receptor [1] = target: T1, human Y5 receptor (human, UniProt Q15761 1-445); assay: cell-based or functional assay
T1 sequence (looked up): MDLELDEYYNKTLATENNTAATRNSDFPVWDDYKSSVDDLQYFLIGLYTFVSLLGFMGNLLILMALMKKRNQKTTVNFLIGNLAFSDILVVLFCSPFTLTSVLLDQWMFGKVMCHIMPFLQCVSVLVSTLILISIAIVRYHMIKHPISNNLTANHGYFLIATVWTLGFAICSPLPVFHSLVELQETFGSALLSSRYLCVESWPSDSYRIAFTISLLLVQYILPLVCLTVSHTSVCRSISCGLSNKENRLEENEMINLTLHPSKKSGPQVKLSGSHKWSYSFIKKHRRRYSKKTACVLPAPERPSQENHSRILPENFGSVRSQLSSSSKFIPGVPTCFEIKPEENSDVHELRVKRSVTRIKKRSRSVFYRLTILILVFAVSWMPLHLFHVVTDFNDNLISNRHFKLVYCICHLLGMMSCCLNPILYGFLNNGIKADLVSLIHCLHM

human Y5 receptor [2] = target: T1, human Y5 receptor; assay: competition binding, 125I-NPY displaced, COS-7 cells with human Y5
Experimental: (§1) Transfected COS-7 cells are transferred to culture plates one day after transfection at a density of 40×10^3 cells per well aiming at 5-8% binding of the radioactive ligand. […] Determinations are made in duplicate. Steady state binding is reached with the radioactive ligand under these conditions. EC50 values were calculated using a standard pharmacological data handling software, Prism 3.0 (graphPad Sofware, San Diego, USA).

human Y4 receptor [3] = target: T2, human Y4 receptor (human, UniProt P50391 1-375); assay: cell-based or functional assay
T2 sequence (P50391 whole entry): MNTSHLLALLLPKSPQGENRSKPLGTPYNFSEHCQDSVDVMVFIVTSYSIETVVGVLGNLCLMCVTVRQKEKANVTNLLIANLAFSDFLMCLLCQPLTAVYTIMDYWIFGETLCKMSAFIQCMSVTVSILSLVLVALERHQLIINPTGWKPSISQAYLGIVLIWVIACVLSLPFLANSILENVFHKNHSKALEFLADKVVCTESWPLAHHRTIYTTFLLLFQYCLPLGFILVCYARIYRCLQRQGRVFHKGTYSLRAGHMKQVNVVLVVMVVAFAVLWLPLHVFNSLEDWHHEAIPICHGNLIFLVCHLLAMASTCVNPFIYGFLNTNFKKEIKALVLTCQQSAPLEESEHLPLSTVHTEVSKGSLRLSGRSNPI

human Y2 receptor = target: T3, human Y2 receptor (human, UniProt P49146 1-381); assay: cell-based or functional assay
T3 sequence (looked up): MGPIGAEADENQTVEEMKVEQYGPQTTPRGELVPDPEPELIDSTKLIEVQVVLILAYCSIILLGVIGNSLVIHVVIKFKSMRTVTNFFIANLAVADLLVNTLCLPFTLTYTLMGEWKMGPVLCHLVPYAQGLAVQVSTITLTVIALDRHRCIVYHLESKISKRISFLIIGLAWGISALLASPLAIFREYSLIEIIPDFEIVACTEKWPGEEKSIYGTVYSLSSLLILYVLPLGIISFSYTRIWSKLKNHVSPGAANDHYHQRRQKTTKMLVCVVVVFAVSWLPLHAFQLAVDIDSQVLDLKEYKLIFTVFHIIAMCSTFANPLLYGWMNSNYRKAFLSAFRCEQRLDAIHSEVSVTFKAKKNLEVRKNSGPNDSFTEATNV

human Y4 receptor [4] = target: T2, human Y4 receptor; assay: competition binding, 125I-PP displaced, COS-7 cells with human Y4
Experimental: as §1

Binder | EC50 (inositol phosphate turnover) (human Y5 receptor [1]) [nM] | IC50 (human Y5 receptor [2]) [nM] | EC50 (inositol phosphate turnover) (human Y4 receptor [3]) [nM] | EC50 (inositol phosphate turnover) (human Y2 receptor) [nM] | IC50 (human Y4 receptor [4]) [nM]
KKKKKKRHYLNLVTRQRY-NH2 (also called [Lys]6-PYY25-36) [Lys-Lys-Lys-Lys-Lys-Lys-PYY25-36] | > 1000 | 429 |  |  | 
APLKPVYPGDNATPEQMAQYAADLRRYINMLTRQRY-NH2 [[Lys4,Gln34]PP] | 3.8 | 0.87 | 64 | 0.17 | 6
